The target of this experiment is T1, recombinant cyno C1r2s2 His/Flag tetramer (cynomolgus monkey, limits assumed).
T1 construct: Heterotetramer of two C1r-His and two C1s-Flag chains, co-expressed in FreeStyle293-F cells; also called cyno C1r2s2s
T1 chain 1: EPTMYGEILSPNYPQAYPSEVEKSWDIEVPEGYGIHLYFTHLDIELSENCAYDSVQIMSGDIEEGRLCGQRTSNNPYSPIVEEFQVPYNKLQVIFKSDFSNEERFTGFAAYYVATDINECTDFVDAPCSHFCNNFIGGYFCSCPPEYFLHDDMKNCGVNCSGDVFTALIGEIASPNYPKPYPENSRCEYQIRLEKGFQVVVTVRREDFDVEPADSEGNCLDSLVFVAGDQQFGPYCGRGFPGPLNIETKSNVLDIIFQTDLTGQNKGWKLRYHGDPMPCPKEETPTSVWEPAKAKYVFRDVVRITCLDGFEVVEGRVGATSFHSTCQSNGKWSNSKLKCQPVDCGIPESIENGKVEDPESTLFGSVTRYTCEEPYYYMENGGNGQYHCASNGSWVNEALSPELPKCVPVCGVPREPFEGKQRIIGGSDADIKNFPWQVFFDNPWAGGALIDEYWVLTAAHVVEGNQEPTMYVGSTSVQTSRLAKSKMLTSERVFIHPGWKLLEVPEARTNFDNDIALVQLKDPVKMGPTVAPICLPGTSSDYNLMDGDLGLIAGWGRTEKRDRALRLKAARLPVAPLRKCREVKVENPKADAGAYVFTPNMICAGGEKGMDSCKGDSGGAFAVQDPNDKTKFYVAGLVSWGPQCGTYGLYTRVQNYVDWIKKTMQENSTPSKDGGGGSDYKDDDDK
T1 chain 2: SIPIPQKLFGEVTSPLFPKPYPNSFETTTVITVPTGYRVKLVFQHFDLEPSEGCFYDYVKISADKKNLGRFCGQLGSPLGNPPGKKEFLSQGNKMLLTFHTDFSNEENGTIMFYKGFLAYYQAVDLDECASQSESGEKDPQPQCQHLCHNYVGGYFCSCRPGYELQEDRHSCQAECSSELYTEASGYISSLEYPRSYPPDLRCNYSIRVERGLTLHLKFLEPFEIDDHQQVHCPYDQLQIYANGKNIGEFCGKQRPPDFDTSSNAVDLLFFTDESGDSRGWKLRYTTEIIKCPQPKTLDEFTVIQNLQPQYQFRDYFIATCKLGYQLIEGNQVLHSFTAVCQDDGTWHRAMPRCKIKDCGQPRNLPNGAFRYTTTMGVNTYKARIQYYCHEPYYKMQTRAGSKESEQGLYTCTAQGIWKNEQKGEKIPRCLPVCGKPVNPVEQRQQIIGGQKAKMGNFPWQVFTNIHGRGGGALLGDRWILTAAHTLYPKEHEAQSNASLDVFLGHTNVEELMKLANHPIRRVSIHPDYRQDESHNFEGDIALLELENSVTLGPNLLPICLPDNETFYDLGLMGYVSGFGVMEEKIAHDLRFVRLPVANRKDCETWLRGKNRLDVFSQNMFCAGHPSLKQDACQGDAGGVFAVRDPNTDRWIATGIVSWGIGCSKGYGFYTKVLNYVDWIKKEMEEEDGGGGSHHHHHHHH
Put plainly: SPR (Biacore), pH5.8*: dissociation at pH5.8 after association and dissociation at pH7.4, 37 C, Scrubber fit. As to the method: The kinetic parameters of anti-C1s antibodies against recombinant human C1s (as described in PCT/JP2018/042054), human C1r2s2, and cyno C1r2s2 His/Flag (also referred as cyno C1r2s2 in the Table and Figures) were assessed at pH7.4 and pH5.8, at 37 degrees C. using BIACORE (registered trademark) T200 instrument (GE Healthcare) or BIACORE 4000 (GE Healthcare). ProAG (Pierce) was immobilized onto a CM4 sensorchip using amine coupling kit (GE Healthcare) according to the recommended settings by GE Healthcare. Antibodies and analytes were diluted into the respective running buffers, ACES pH7.4 and pH5.8 (20 mM ACES, 150 mM NaCl, 1.2 mM CaCl₂, 1 mg/ml BSA, 1 mg/ml CMD, 0.05% Tween 20, 0.005 w/v % NaN₃). Each antibody was captured onto the sensor surface by ProA/G. Antibody capture levels were typically 100-200 resonance units (RU). Then, recombinant C1s was injected at concentrations of 25 and 50 nM followed by dissociation at pH7.4 and pH5.8. The surface was regenerated using 10 mM Glycine-HCl, pH1.5. Kinetic parameters at neutral pH conditions and acidic conditions were determined by fitting the sensorgrams with 1:1 binding model using BIACORE (registered trademark) T200 Evaluation software, version 2.0 (GE Healthcare) or BIACORE 4000 Evaluation software. The dissociation rate at pH5.8 (after dissociation at pH7.4, indicated as pH5.8* in TABLE 2) was determined by processing and fitting data using Scrubber 2.0 (BioLogic Software) curve fitting software. The association rate (ka), dissociation rate (kd), binding affinity (KD) at pH7.4 and pH5.8 condition, and dissociation rate (kd) at pH5.8* condition of the antibodies are listed in TABLE 2. Some kinetic parameters of COS0098pHv1 in acidic condition were not correctly calculated because of its weak binding response.
Also, to observe the cross-reactivity of anti-C1s antibodies against human C1r2s2 and cyno C1r2s2 (cyno C1r2s2 His/Flag), BIACORE (registered trademark) kinetics analysis was performed.

This note sets out measurements from patent US20230002481A1 (Chugai, published 2023).

B1: COS0098pHv1 (antibody, V domains shown)
VH: QVQLVQSGAEVKKPGSSVKVSCKASGHTFSKYTVSWIRQPPGKGLEWIGIINTGGSAYPATWAKGRVTITADESTSTAYMELSSLRSEDTAVYYCARGAGDTDYTNLWGQGTLVTVSS
VL: DIQMTQSPSSLSASVGDRVTITCQASENIYSALAWYQQKPGQPPKLLIYGASQLESGVPSRFSGSGSGTDFTLTISSLQPEDFATYYCQQYYFTSHTFGQGTKVEIK
notes: Humanized, optimized pH-dependent variant of COS0098bb
In the case of B1, the koff is 0.0618 s⁻¹.

B2: COS0098bb (antibody, V domains shown)
VH: QSVEESGGRLVTPGTPLTLTCTVSGFSLTKYTVSWVRQAPGKGLEWIGIINTGGSAYYATWAKGRFTFSKTSTTVDLQITSPTTEDTATYFCARGNGDTDYTNLWGPGTLVTVSS
VL: QVLTQTPSSVSEPVGGTVTINCQASENIYSALAWYQQKPGQPPKLLIYGASNLESGVPSRFKGSGSGTQFTLTISDLECADAATYYCQQYYFTSSTFGGGTKVEIK
notes: Anti-C1s rabbit antibody, parent of COS0098pHv1; the antibody was captured by ProA/G; also called anti-C1s antibody COS0098bb
For the molecule B2, the koff came to 0.000926 s⁻¹.

Broadly, the koff is the rate constant with which the complex falls apart.
